Data published in paper PMC2628979 (Molecular microbiology, 2007).
Like-named read-outs stand apart in the source and are kept apart here.

B4: N-CEA F29R (domain or fragment)
chain: AKLTIESTPFNVAEGKEVLLLVHNLPQHLRGYSWYKGERVDGNRQIIGYVIGTQQATPGPAYSGREIIYPNASLLIQNIIQNDTGFYTLHVIKSDLVNEEATGQFRVYPEL
B10: N-terminal domain of carcinoembryonic antigen (N-CEA) (domain or fragment)
chain: AKLTIESTPFNVAEGKEVLLLVHNLPQHLFGYSWYKGERVDGNRQIIGYVIGTQQATPGPAYSGREIIYPNASLLIQNIIQNDTGFYTLHVIKSDLVNEEATGQFRVYPEL
B12: N-CEA S32N (domain or fragment)
chain: AKLTIESTPFNVAEGKEVLLLVHNLPQHLFGYNWYKGERVDGNRQIIGYVIGTQQATPGPAYSGREIIYPNASLLIQNIIQNDTGFYTLHVIKSDLVNEEATGQFRVYPEL
B14: N-CEA Q44R (domain or fragment)
chain: AKLTIESTPFNVAEGKEVLLLVHNLPQHLFGYSWYKGERVDGNRRIIGYVIGTQQATPGPAYSGREIIYPNASLLIQNIIQNDTGFYTLHVIKSDLVNEEATGQFRVYPEL

Key:
[1] = biological target: TMR labeled H27C N-CEA mutant (human) (UniProt P06731); assay: absorbance of tetramethylrhodamine dimers
SEC = biological target: the molecule itself; assay: SEC
[2] = biological target: B10; assay: SPR
cross-linking = biological target: the molecule itself; assay: cross-linking
AUC = biological target: the molecule itself; assay: AUC
N-CEA V39A = biological target: T1, N-CEA V39A (human, UniProt P06731 34-144, V39A); assay: SPR
T1 sequence: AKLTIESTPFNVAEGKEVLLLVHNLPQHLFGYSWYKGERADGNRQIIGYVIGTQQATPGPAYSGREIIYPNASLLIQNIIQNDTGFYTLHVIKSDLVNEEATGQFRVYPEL

N-CEA F29R = biological target: B4; assay: SPR
N-CEA Q44R = biological target: B14; assay: SPR
N-CEA S32N = biological target: B12; assay: SPR
[3] = biological target: B10; assay: SPR; remark: listed apart in the source
[4] = biological target: B10; assay: SPR; remark: listed apart in the source

Question: Which 518/555 absorbance ratio of TMR-labeled N-CEA after dilution with DraE [1] does the source give for “DraE monomer (DraE-dsc) (natural protein)” here?
Answer: 0.48

B1: N-CEA L95C (domain or fragment)
chain: AKLTIESTPFNVAEGKEVLLLVHNLPQHLFGYSWYKGERVDGNRQIIGYVIGTQQATPGPAYSGREIIYPNASLLIQNIIQNDTGFYTLHVIKSDCVNEEATGQFRVYPEL
Question: Which “stoichiometry N” value (SEC) does the source give for B1 here?
Answer: 2

B2: N-CEA H89Q (domain or fragment)
chain: AKLTIESTPFNVAEGKEVLLLVHNLPQHLFGYSWYKGERVDGNRQIIGYVIGTQQATPGPAYSGREIIYPNASLLIQNIIQNDTGFYTLQVIKSDLVNEEATGQFRVYPEL
Question: Which “stoichiometry N” value (SEC) does the source give for B2 here?
Answer: 2

B3: N-CEA L95A (domain or fragment)
chain: AKLTIESTPFNVAEGKEVLLLVHNLPQHLFGYSWYKGERVDGNRQIIGYVIGTQQATPGPAYSGREIIYPNASLLIQNIIQNDTGFYTLHVIKSDAVNEEATGQFRVYPEL
Question: For B3, which “stoichiometry N” value (SEC) is on record?
Answer: 2

Question: How did the Kd [2] turn out when B4 was run?
Answer: ~200 µM

B5: N-CEA L74A (domain or fragment)
chain: AKLTIESTPFNVAEGKEVLLLVHNLPQHLFGYSWYKGERVDGNRQIIGYVIGTQQATPGPAYSGREIIYPNASLAIQNIIQNDTGFYTLHVIKSDLVNEEATGQFRVYPEL
Question: With B5 as the molecule, how does the “stoichiometry N” value (SEC) read?
Answer: 2

B6: N-CEA F29I (domain or fragment)
chain: AKLTIESTPFNVAEGKEVLLLVHNLPQHLIGYSWYKGERVDGNRQIIGYVIGTQQATPGPAYSGREIIYPNASLLIQNIIQNDTGFYTLHVIKSDLVNEEATGQFRVYPEL
Question: How did the “stoichiometry N” value (SEC) turn out when B6 was run?
Answer: 2

B7: N-CEA D40A (domain or fragment)
chain: AKLTIESTPFNVAEGKEVLLLVHNLPQHLFGYSWYKGERVAGNRQIIGYVIGTQQATPGPAYSGREIIYPNASLLIQNIIQNDTGFYTLHVIKSDLVNEEATGQFRVYPEL
Question: Which “stoichiometry N” value (SEC) does the source give for B7 here?
Answer: 2

B8: N-CEA V39C mutant (domain or fragment)
chain: AKLTIESTPFNVAEGKEVLLLVHNLPQHLFGYSWYKGERCDGNRQIIGYVIGTQQATPGPAYSGREIIYPNASLLIQNIIQNDTGFYTLHVIKSDLVNEEATGQFRVYPEL
Question: How did the “stoichiometry N” value (cross-linking) turn out when B8 was run?
Answer: 2

B9: N-CEA Q76A (domain or fragment)
chain: AKLTIESTPFNVAEGKEVLLLVHNLPQHLFGYSWYKGERVDGNRQIIGYVIGTQQATPGPAYSGREIIYPNASLLIANIIQNDTGFYTLHVIKSDLVNEEATGQFRVYPEL
Question: B9 was tested. Which “stoichiometry N” value (SEC) did it give?
Answer: 2

Question: For B10, which Kd (AUC) is on record?
Answer: 800 nM

Question: And the “stoichiometry N” value (SEC)?
Answer: 2

B11: N-CEA I91A (domain or fragment)
chain: AKLTIESTPFNVAEGKEVLLLVHNLPQHLFGYSWYKGERVDGNRQIIGYVIGTQQATPGPAYSGREIIYPNASLLIQNIIQNDTGFYTLHVAKSDLVNEEATGQFRVYPEL
Question: How did the Kd [2] turn out when B11 was run?
Answer: 55 ± 6 µM

Question: Which Kd [2] does the source give for B12 here?
Answer: ~200 µM

B13: N-terminal domain of CEACAM1 (N-CEACAM1) (domain or fragment)
chain: QLTTESMPFNVAEGKEVLLLVHNLPQQLFGYSWYKGERVDGNRQIVGYAIGTQQATPGPANSGRETIYPNASLLIQNVTQNDTGFYTLQVIKSDLVNEEATGQFHVYP
Question: Which results are given for B13?
Answer: Kd (N-CEA V39A): ~100 µM; Kd (N-CEA F29R): ~100 µM; Kd (N-CEA Q44R): 72 ± 9 µM; Kd (N-CEA S32N): ~100 µM

Question: How did the Kd [2] turn out when B14 was run?
Answer: ~130 µM

B15: N-terminal domain of CEACAM6 (N-CEACAM6) (domain or fragment)
chain: KLTIESTPFNVAEGKEVLLLAHNLPQNRIGYSWYKGERVDGNSLIVGYVIGTQQATPGPAYSGRETIYPNASLLIQNVTQNDTGFYTLQVIKSDLVNEEATGQFHVYP
Question: B15 was tested. Which Kd (N-CEA F29R) did it give?
Answer: ~200 µM

Question: What about the Kd (N-CEA Q44R) of the same molecule?
Answer: 28 ± 3 µM

Question: And the Kd (N-CEA S32N)?
Answer: ~200 µM

Question: What about the Kd [3] of the same molecule?
Answer: 65 ± 7 µM

Question: And the Kd [4]?
Answer: ~100 µM
